These results are taken from the nanobody polyreactivity screen of Harvey et al. (2022).

A short description of the data set: yeast display, Sf9 membrane polyspecificity reagent, FACS + sequencing; frameworks hold sequencing errors. Put shortly: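 Sorting gates, low and high (top ~1%), were placed on anti-HA fluorescence to track expression and on streptavidin fluorescence to track reagent binding. A clone's polyreactivity label is taken from the gate it came out of. The reagent was 10% biotinylated, detergent-solubilized Sf9 membrane, applied for 1 hour at 4 °C to galactose-induced yeast display cells.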
Take “QVQLVESGGGLVQAGGSLRLSCAASGITFWKYAMGWYRQAPGKERELVAVITKSGGSTYYADSVKGRFTISRDNAKNTVYLQMNSLKPEDTAVYYCAASSETYYYGYEYWGQGTQVTVSS”: the “polyreactivity (PSR sort gate)” value is “high polyreactivity”.
The value for “QVQLVDSGGGLVQAGGSLRLSCAASGRIFIGYAMGWNRQAPWRERELVAAITSGGGTYYADSVKARFTISRDNAKNTVYLQMNSLKPEDTAVYFCAGAQRYPIKYYFWGQGTQVTVSS” was “low polyreactivity”.
Consider “QVQLVESGGGLVQAGGSLRLSCAASGLIFIAYAMGWYRQAPGKDRELVAAISSGGSTYADSVKRRFTISRDNAKNTVYLQMNSLKPEETAVYYCNADSWSGTTYFNFNYWGQGTQVTVSS”, for which the “polyreactivity (PSR sort gate)” value is reported as “low polyreactivity”.
For the sequence “QVQLVESGGGLVQAGGSLRLSCAASGIIFYKFAMGWYRQAPGKERELVASISRRGGNTYYADSVKGRCTISRDNAKNTVYLQMNSLKPEDTAVYDSAAPKRSNEPYDYWGQGTQVTVSS”, the “polyreactivity (PSR sort gate)” value is reported as “high polyreactivity”.
On to “QVQLVESGGGLVQAGGRLRLRCAASGFTFRYNAMGCNRQAPGKERELVATISSGASTYYADSVKGRFTISRDNAKNTVYFQMNSLIPVDSAVYYCAADDLGLWFYSGVDDYYYCGQGTQVTVSS”, for which the “polyreactivity (PSR sort gate)” value is “low polyreactivity”.
In the case of “QVQLVESGGGLVQAGGSLRLSCAASGSTFWINAMGWYRQAPGKERELVADISHSAGNTYYADSVKGRFTISRDNAKNTVYLQMNSLKPEDTAVYYCAARRWGVRSGDYYWGQGTQVTVSS”, the “polyreactivity (PSR sort gate)” value is on record as “low polyreactivity”.
For “QVQLEESGGGLVHAGGSLRLSCAASGSTFGYYTMGWYRQAPRKERELVAAITWSGGSTYYADSVKGRFTISLDNAKNTVYLQMNSLKPEDSAVYYCAADDYWTPFGYWGQGTQVTVSS”, the “polyreactivity (PSR sort gate)” value is “low polyreactivity”.
As for “QVQLVESGGGLVQAGGSLRLSCAASGRTFWNAMGWYRQAPGKERELVATITSGGITNYADSVKGRFTISRDNAKNTVYLQMNSLKPEDTAVYYCAARPYSWRNYRPSDYWGQGTQVTVSS”, the “polyreactivity (PSR sort gate)” value is “high polyreactivity”.
“QVQLVESGGGLVQAGGSLRLSCAASGLTFQTNAMGWYRQAPGKERELVAAISRRGSSTYYADSVKGRFTISRDNAKNTVYLQMNSLKPEDTAVYYCNAVRFLFIYPRYDYWGQGTQVTVSS”: the “polyreactivity (PSR sort gate)” value was “high polyreactivity”.
As for “QVQLVESGGGLVQAGGSLRLSCAASGSTSYWYAMGWYRQAPGKESELVATIRSRGGSTSYADSVKGRFTIARDNAKNTVYLQMNSLKPEDTAVNYCNTRKLYQVDYDYLGQGTQVTVSS”, the “polyreactivity (PSR sort gate)” value is recorded as “high polyreactivity”.
As for “QVQLVESGGGLVQAGGSLRLSCAASGSTFPYYAMGWYRQAPGKERELVAAISRGDSTNYADSVKGRFTISRDNAKNTFYLQMNSLKTEDTAVYYCAARLQYRRTSVKYYYWGQGTQVTVSS”, the “polyreactivity (PSR sort gate)” value is “high polyreactivity”.
Take “QVQLVESGGGLVQAGGSLRLSCAASGFTFIRYAMGWDRQAPGKERELVAAISVSGGRTYYADSVKGRFTISRDNAKNTVYLQMNSLKPEDTAVYYCARRPSYYQGDYWGQGTQVTVSS”: the “polyreactivity (PSR sort gate)” value was “high polyreactivity”.
Take “QVQLVESGGGLVQAGGSLRLSCAASGSTFQYNDMGWYRQAPGKERELVAAISSSGGSTSYADSVKGRFTISRDNAKNTVYLQMNSLKPEDTAVYYCAASYPGYHLYRDDYWGQGTQVTVSS”: the “polyreactivity (PSR sort gate)” value was “low polyreactivity”.
“PVQLVESGGGLGQAGGSLSLRCAASGSIFTYYAMVWYRQAPGKERELVADISNSGSTYYADSVNGRFTISRDNAKNTVYLQMNRLKPEDSAVSSCNAEYHDLYDYWGQGTQVTVSS”: the “polyreactivity (PSR sort gate)” value is on record as “low polyreactivity”.
Turning to “QVQLVESGGGLVQAGGSLRLSCAASGSILAYYGMGWYRQAPGKEREFVAAISNRGGSTYYADSVKGRFTISRDNAKNTVYLQLNSLKPEDTAVYYCARELYRRVWHHWAYWAAYDYWGQGTQVTVSS”, the “polyreactivity (PSR sort gate)” value is “low polyreactivity”.
For the sequence “QVQLVESGGGLVQAGGSLRLSCAASGLTFWGNAMGWYRQAPGKEREFVAGIDRSSVSTYADSVKGRFTISRDNAKNTVYLQMNSLKPEDTAVYYCAVDEYGIWVGWVPYATFGMNYWGQGTQVTVSS”, the “polyreactivity (PSR sort gate)” value is on record as “high polyreactivity”.
Consider “QVQLVESGGGLVQAGGRLRLSCAASGSIFDENTMGWYRQAPGKERELVAAITYSGTSTYYADTVKGRFTISRDNAKNTVYLQMNSLKPEDTAVYYCAAEQWRYDGSFTGYGYWGQGTQVTVSS”, for which the “polyreactivity (PSR sort gate)” value was “low polyreactivity”.
“QVQLVESGGGLVQAGGSLRLSWAASGSIFQVYAMGWYRQAPGKEREFVAAISYSGGGTYYADSVKGRFTISRDNAKNTVYLQMNSLKPEDTAVYYCAADVSGWEYDYWGQGTQVTVSS”: the “polyreactivity (PSR sort gate)” value was “low polyreactivity”.
In the case of “QVQLVESGGGLVQAGGSLRLSCAASGYTFYQNTMGWYRQAPGKERELVADITRRGGSTYYADSVKGRFTISRDNAKNTVYLQINSLKPEDTAVYYCAARYGPWTGYATYRYASSRYNYWGQGTQVTVSS”, the “polyreactivity (PSR sort gate)” value is reported as “high polyreactivity”.
Turning to “QVQLVESGGGLVQAGGSLRLSCAASGIIFVSYAMGWYRQAPGKERELVADITSGGRTYYADSVKGRFTISRDNAKNTVYLQMNSLKPEDTAGYYCAATYSYKGRWVWVYYWGQGTQVTVSS”, the “polyreactivity (PSR sort gate)” value is listed as “high polyreactivity”.
The value for “QVQLVESGGGLVQAGGSLRLSCAASGSTFSSNAMGWYRQAPGNERELVAAISKRGGRTYYADSVKGRFTISRDNAKNTVYLQMNSLKPEDTAVYYCAKDYSSAVDYWGQGTQVTVSS” was “high polyreactivity”; that for “QVQLVESGGGLVQAGGSLRLSCAASGIIIQRNAMGWYRQAPGKERELVAAISIGGGSTYADSVKGRFTISRDNAMNTVYLQMNSLKPEDTAVYYCAADYSGASVLMDYWGQGTQVTVSS” was “low polyreactivity”.
As for “QVQLVESGGGLVQAGGSLRLSCAASGSTFVRYVMGWYRQAPGKQRELVAAISRRGGSTYYADSVEGRFTISRDNAKNTVYLQMNSLKPEDTAVYYCAARGTSRKYYYWGQGTQVTVSS”, the “polyreactivity (PSR sort gate)” value is listed as “high polyreactivity”.
For the sequence “QVQLVESGGGLFQAGGSLRLICADSGRTFGYNAMGWYRKATGKDRELVAAINWSGASTYYADSVKGRFTISRDNAKNTVYLQMNCLKPEDTAVYYCAAAYSYIYGFDYWGQGTQVTVSS”, the “polyreactivity (PSR sort gate)” value is recorded as “low polyreactivity”.
For the sequence “QVQLVESGGGLVQAGGSLRLSCSASGRIFPWNTMGWYRQAPGKERELVAGITSGGSTNYADSVKGRFTISRDNAKNTVYLQMNSLKPEDTAVYYCAARGYYWYISGVYEYEYWGQGTQVTVSS”, the “polyreactivity (PSR sort gate)” value is “low polyreactivity”.
For “QVQLVESGGGLVQAGGSHRLSCAASGSTFYYYAMGWYRQAPGKERELVAAISKSGGRTYYADSVKGRFTFSRDNAKNTVYLQMNSLKPEDTAVYYCNAVQYLNGYDYWGQGTQVTVSS”, the “polyreactivity (PSR sort gate)” value was “high polyreactivity”.
The value for “QVQLVESGGGLVQAGGSLRLSCAASGSTFAGNEMGWYRQAPGKERELVAAITFSGGRTDYADSVKGRFTISRDNAKNTVYFQINCLKPEDTAVYDCAAPADDTVHYQNYYWGQGTQVSVSS” was “low polyreactivity”; that for “QVQLVESGGGLVQAGGSLRLSCAASGRTFRYYAMGWYRPAPGKERELVAAITSGGTSTYYADSVKGRFTISRDNAKNTVYLQMYSLKPEDTAVYYCAAGRRSYSFHNVVRGYDYWGQGTQVTVSS” was “high polyreactivity”.
For “QVQRVESGGGLVQAGGSLRLSCAASGYTFLRYAKGSYRQAPGKERELVAAISRRGGRTYYADSVKGRFTISRDNAKNTVYLQMNSLKPEDTAVYYCAAVNSTQTIGLMDYWGQGTQVTVSS”, the “polyreactivity (PSR sort gate)” value is recorded as “high polyreactivity”.
In the case of “QVQLVESGGGLVQAGGSLRLSCAASGRTFNWYAMGWYRQAPGKERELVAAIRVNGGITYYADSVKGRFTISRDNAKNTVYLQMISLKPEDTAVYYCAVYSRQGLGYWGQGTQVTVSS” it was “high polyreactivity”; in that of “QVQLVESGGGLVQAGGSLRLSCAASGFIFWDYAMGLYRQAPGKERELVAAISDSGGDTYYADSVKGRFTISRDNAKNTVYFQINSLKPEDTAVYYCSADVELWVFRGQQYDYWGQGTQVTVSS”, “low polyreactivity”; in that of “QVQLVESGGGLVQAGGSLRLSCAPSGSIFVKNAMGWYRQAPGKERELVAFITIRTATTYYADSVKGRFTISRDNAKNTVYLQMNSLKPEDTAVYYCAAAKRQRGYLQREGNYWGQGTQVTVSS”, “low polyreactivity”.
The value for “QVQLVESGGGLVQAGASLRLSCAASGFTFTPYAMGWYRQAPGKERELVAGITSGVGRKYADSVKGRFTISRDNAKNTVYLQMNSLKPEDTAVYFCAARYDHWGQGTQVTVSS” was “high polyreactivity”.
Consider “QVQLVESGGGLVQAGGSLRLSCAASGFTFVRYAIGWYRQAPGKERELVSVISRSGGSTNYADSVKGRFTISRDNAKNTVYLQMNSLKPEDTAVYYCAASLQYRRVVKGGDYWGQGTQVTVSS”, for which the “polyreactivity (PSR sort gate)” value is “high polyreactivity”.
In the case of “QVQLVESGGGLVQAGGSLRLSCAASGSIFRYNAMGWYRQAPGKERELVAAISLNTGSTYYADSVKGRFTISRDNAKNTVYLQMNSLKPEDTAVYYCNADDYTYATYEYDYWGQGTQVTVSS” it was “low polyreactivity”; in that of “QVQLVESGGGLVQAGGSLRLSCAASGFTFYNNAMGWYRQAPGKERELVAGIARRGGSTSYADSVKGRFTISRDNAKNSVYLQMNSLKPEDTEVYYCAKQDYSPYYPYDYWGLGTQVTVSS”, “high polyreactivity”.
With “QVQLVESGGGLVQAGGSLRLSCAASGSNLGLYAMGWYRQAPGKERELVAAISSGGSTYYADSVKGRFTISRDNAKNTVYLQMNSLKPEDTAVYYCAADLSLSRVVFGDYDYWGQGTQVTVSS”, the “polyreactivity (PSR sort gate)” value is “low polyreactivity”.
“QVQLVESGGGLVQAGGSLRLSCAASGFIFKFYAMGWYRQAHGKERELVAAISKSGGRTYYADSVKGRFTISRDNAKNTVYLQMNSLKPEDTAVYYCNAPSVGAAFDYWGQGTQVTVSS”: the “polyreactivity (PSR sort gate)” value is given as “high polyreactivity”.
The value for “QVQLVESGGGLVQAGGSLRLSCAASGSIFDGYAMGWYRQAPGKERELVAAISSSGVTTYYADSVKGRFTISRDNAKNTVYLQMNSLKPEDTAVYYCATYSYTWLNYYWGQGTQVTVSS” was “high polyreactivity”.
Turning to “QVQLVESGGGLVQAGGSLRLSCAASGRIVEVYAMGWYRQARGKERELVAAISSGGGSTYYADSVKGRFTISRDNAKNTVYLQMNSQKPEDTAVYYCAARKPSVRGAPYYYWGQGTQVTVSS”, the “polyreactivity (PSR sort gate)” value is “high polyreactivity”.
With “QVQLVESGGGLVQAGGSLRLSCAASGRTFKTYARGWYREAPGKERELVAAISRDGRTYYADSVKGRFTISRDNAKNTVYLQRNSLKPEDTAVYYCAVGIYDHLYNHEYWGQGTQVTVSS”, the “polyreactivity (PSR sort gate)” value was “low polyreactivity”.
